From paper PMC10721955 come the findings set out here.

For this experiment, the target named is Flag-tagged mouse MRTF-A (MAL fl), in vitro translated. Briefly: in vitro protein binding assay (IP/IB of in vitro translated tagged proteins), quantified. As to conditions: IP: HA-gel (HA-CRP2), three independent experiments, parent: 100, read off a plot.

On to “HA-tagged human CRP2 (cysteine-and glycine-rich protein 2), in vitro translated (from UniProt Q16527) 153L/D; 158L/D”, for which the percent of parent was 22%.

Take “HA-tagged human CRP2 (cysteine-and glycine-rich protein 2), in vitro translated (from UniProt Q16527) 154E/L; 156T/D; 157T/D”: the percent of parent is 21%.
